Measured values published in US11999805.
Blank lines part the entries; values can stand above or below the binder they belong to.

Assays:
[1] = target: SpyCas9 (S. pyogenes), Q99ZW2; experiment: cell-based or functional assay
Peptide 60 = target: T1, Peptide 60
T1 chain: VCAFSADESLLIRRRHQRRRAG

Peptide 91 = target: T2, Peptide 91
T2 chain: VYDFYRMLSHFFLKGPSR

Peptide 90 = target: T3, Peptide 90
T3 chain: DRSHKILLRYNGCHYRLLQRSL

Peptide 15 = target: T4, Peptide 15
T4 chain: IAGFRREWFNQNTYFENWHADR

Peptide 99 = target: T5, Peptide 99
T5 chain: RRSHIAWLLAMSLTWYS

Binder: LNVKIGNAHLTTIMSTMPLVLC (modifications not checked) [Peptide 63]
IC50(uM), FRET cleavage assay [1]: 97.9 µM

Binder: VCAFSADESLLIRRRHQRRRAG (modifications not checked) [Peptide 60]
IC50(uM), FRET cleavage assay [1]: 92.2 µM | reduced editing (compared to plasmid control), A549 GFP reporter cells [1]: 30%

B1: SauCas9 (protein)
chain: MKRNYILGLDIGITSVGYGIIDYETRDVIDAGVRLFKEANVENNEGRRSKRGARRLKRRRRHRIQRVKKLLFDYNLLTDHSELSGINPYEARVKGLSQKLSEEEFSAALLHLAKRRGVHNVNEVEEDTGNELSTKEQISRNSKALEEKYVAELQLERLKKDGEVRGSINRFKTSDYVKEAKQLLKVQKAYHQLDQSFIDTYIDLLETRRTYYEGPGEGSPFGWKDIKEWYEMLMGHCTYFPEELRSVKYAYNADLYNALNDLNNLVITRDENEKLEYYEKFQIIENVFKQKKKPTLKQIAKEILVNEEDIKGYRVTSTGKPEFTNLKVYHDIKDITARKEIIENAELLDQIAKILTIYQSSEDIQEELTNLNSELTQEEIEQISNLKGYTGTHNLSLKAINLILDELWHTNDNQIAIFNRLKLVPKKVDLSQQKEIPTTLVDDFILSPVVKRSFIQSIKVINAIIKKYGLPNDIIIELAREKNSKDAQKMINEMQKRNRQTNERIEEIIRTTGKENAKYLIEKIKLHDMQEGKCLYSLEAIPLEDLLNNPFNYEVDHIIPRSVSFDNSFNNKVLVKQEENSKKGNRTPFQYLSSSDSKISYETFKKHILNLAKGKGRISKTKKEYLLEERDINRFSVQKDFINRNLVDTRYATRGLMNLLRSYFRVNNLDVKVKSINGGFTSFLRRKWKFKKERNKGYKHHAEDALIIANADFIFKEWKKLDKAKKVMENQMFEEKQAESMPEIETEQEYKEIFITPHQIKHIKDFKDYKYSHRVDKKPNRELINDTLYSTRKDDKGNTLIVNNLNGLYDKDNDKLKKLINKSPEKLLMYHHDPQTYQKLKLIMEQYGDEKNPLYKYYEETGNYLTKYSKKDNGPVIKKIKYYGNKLNAHLDITDDYPNSRNKVVKLSLKPYRFDVYLDNGVYKFVTVKNLDVIKKENYYEVNSKCYEEAKKLKKISNQAEFIASFYNNDLIKINGELYRVIGVNNDLLNRIEVNMIDITYREYLENMNDKRPPRIIKTIASKTQSIKKYSTDILGNLYEVKSKKHPQIIKKG
% activity, FRET cleavage assay (Peptide 60): Peptide 60, 90, and 91 significantly reduced activity of SauCas9 and SpyCas9 at 200 µM (P<0.005) | % activity, FRET cleavage assay (Peptide 91): Peptide 60, 90, and 91 significantly reduced activity of SauCas9 and SpyCas9 at 200 µM (P<0.005) | % activity, FRET cleavage assay (Peptide 90): Peptide 60, 90, and 91 significantly reduced activity of SauCas9 and SpyCas9 at 200 µM (P<0.005) | % activity, FRET cleavage assay (Peptide 15): Peptide15 significantly reduced activity of CjeCas9 and SpyCas9 and SauCas9 at 200 µM (P<0.01) | reduction in cleavage-based fluorescence at 200 µM peptide, FRET assay (Many MPs): Many MPs also reduced SauCas9 and CjeCas9 mediated cleavage at 200 µM with a greater than 80% reduction in fluorescence | % activity, FRET cleavage assay (Peptide 99): Peptide 99 significantly reduced activity of all three Cas9 variants at 100 and 200 µM (P<0.005)

B2: CjeCas9 (protein)
chain: MARILAFDIGISSIGWAFSENDELKDCGVRIFTKVENPKTGESLALPRRLARSARKRLARRKARLNHLKHLIANEFKLNYEDYQSFDESLAKAYKGSLISPYELRFRALNELLSKQDFARVILHIAKRRGYDDIKNSDDKEKGAILKAIKQNEEKLANYQSVGEYLYKEYFQKFKENSKEFTNVRNKKESYERCIAQSFLKDELKLIFKKQREFGFSFSKKFEEEVLSVAFYKRALKDFSHLVGNCSFFTDEKRAPKNSPLAFMFVALTRIINLLNNLKNTEGILYTKDDLNALLNEVLKNGTLTYKQTKKLLGLSDDYEFKGEKGTYFIEFKKYKEFIKALGEHNLSQDDLNEIAKDITLIKDEIKLKKALAKYDLNQNQIDSLSKLEFKDHLNISFKALKLVTPLMLEGKKYDEACNELNLKVAINEDKKDFLPAFNETYYKDEVTNPVVLRAIKEYRKVLNALLKKYGKVHKINIELAREVGKNHSQRAKIEKEQNENYKAKKDAELECEKLGLKINSKNILKLRLFKEQKEFCAYSGEKIKISDLQDEKMLEIDHIYPYSRSFDDSYMNKVLVFTKQNQEKLNQTPFEAFGNDSAKWQKIEVLAKNLPTKKQKRILDKNYKDKEQKNFKDRNLNDTRYIARLVLNYTKDYLDFLPLSDDENTKLNDTQKGSKVHVEAKSGMLTSALRHTWGFSAKDRNNHLHHAIDAVIIAYANNSIVKAFSDFKKEQESNSAELYAKKISELDYKNKRKFFEPFSGFRQKVLDKIDEIFVSKPERKKPSGALHEETFRKEEEFYQSYGGKEGVLKALELGKIRKVNGKIVKNGDMFRVDIFKHKKTNKFYAVPIYTMDFALKVLPNKAVARSKKGEIKDWILMDENYEFCFSLYKDSLILIQTKDMQEPEFVYYNAFTSSTVSLIVSKHDNKFETLSKNQKILFKNANEKEVIAKSIGIQNLKVFEKYIVSALGEVTKAEFRQREDFKK
% activity, FRET cleavage assay (Peptide 15): Peptide15 significantly reduced activity of CjeCas9 and SpyCas9 and SauCas9 at 200 µM (P<0.01) | reduction in cleavage-based fluorescence at 200 µM peptide, FRET assay (Many MPs): Many MPs also reduced SauCas9 and CjeCas9 mediated cleavage at 200 µM with a greater than 80% reduction in fluorescence | % activity, FRET cleavage assay (Peptide 99): Peptide 99 significantly reduced activity of all three Cas9 variants at 100 and 200 µM (P<0.005)

Further lines, results first:

reduced editing (compared to plasmid control), A549 GFP reporter cells [1]: 21%
Binder: IAGFRREWFNQNTYFENWHADR (modifications not checked) [Peptide 15]

IC50(uM), FRET cleavage assay [1]: > 200 µM
Binder: KERRRSLMQLSVKSNSLFLGGT (modifications not checked) [Peptide 82]

IC50(uM), FRET cleavage assay [1]: 114 µM | reduced editing (compared to plasmid control), A549 GFP reporter cells [1]: 35%
Binder: DRSHKILLRYNGCHYRLLQRSL (modifications not checked) [Peptide 90]

IC50(uM), FRET cleavage assay [1]: 145 µM | reduced editing (compared to plasmid control), A549 GFP reporter cells [1]: 30%
Binder: LYYRIMLSCPKYYPCELVGHTS (modifications not checked) [Peptide 50]

IC50(uM), FRET cleavage assay [1]: 48.5 µM
Binder: RRSHIAWLLAMSLTWYS (modifications not checked) [Peptide 99]
